Measured values: PMC10916747, “Safety, biodistribution and radiation dosimetry of the Arg-Gly-Asp peptide ^99mTc-maraciclatide in healthy volunteers” (Nuclear Medicine Communications, 2024)
Numbered stars: 1 amine (or outer) side, 2 acyl side, 3 side chain; on linkers, the order of the positions; unused ones are H or OH. Bridge positions count the residues as written; N and C are the ends. Side chains are listed from the residue outwards. Peptide text beside a SMILES is read from it. * marks the point of attachment. X1 = C/C(=N\O)C(C)(C)NCCC(CCNC(C)(C)/C(C)=N/O)CCN*; Glutaryl = O=C(CCCC(=O)[*:2])[*:1]; X2 = NC(=O)COCC(=O)NCCOCCOCCOCCN*

Experiments:
clinical = experiment: clinical; design: species or system human; conditions: human, in vivo, iv, total radioactivity
Protocol: (§1) On the day of administration before the administration of ^99mTc-maraciclatide, a transmission scan was obtained. The counts acquired from a flood or line source with and without the participant on the imaging couch were utilised to calculate body attenuation. Following intravenous administration of ^99mTc-maraciclatide, whole-body gamma scintigraphy was performed at 5 min post-administration up to 24 h as described below (section 2.6). Additional anterior and posterior planar images of the chest (45 min and 1 h 45 min, post-administration) and the pelvis (1 h 15 min and 2 h post-administration) were obtained for each participant.
(§2) Regions of interest (ROIs) were selected from organs and tissues on the whole-body scintigraphic images showing significant activity uptake. ^99mTc activity in ROIs was calculated using the methodology described in Medical Internal Radiation Dose (MIRD) Pamphlet No. 16 [15].
(§3) To calculate ^99mTc-maraciclatide ex-vivo activity, blood, plasma, urine, and faeces were collected at various time points after administration. Blood and plasma samples were collected at 10 min, 30 min, 1 h, 2 h, 4 h, 8 h, 24 h, 48 h, 72 h, and 7 days post-administration. Concentrations of maraciclatide in plasma were assayed using the LC-MS method (LOQ was 0.5 ng/ml). Urine was also collected at the same time points (if possible) up to 24 h post-administration. Faecal samples were collected as voided for up to 24 h post-administration. Assayed samples for ^99mTc-maraciclatide content were then measured using a gamma counter.
(§4) The biodistribution of ^99mTc was determined by whole-body conjugate view imaging in conjunction with extracorporeal activity measurements in whole blood, plasma, voided urine, and faeces, as described above. Simultaneous anterior and posterior whole-body images were acquired beginning nominally at 5 min, 15 min, 30 min, 60 min, 90 min, 3 h, 6 h and 12 h post-administration. A final anterior and posterior image pair was acquired at a ninth time-point between 21 and 24 h post-administration. Quantitative analysis of the incorporated data at multiple time points yielded biodistribution data consisting of activity in 10 specified organs or tissues [brain, salivary glands, thyroid gland, lungs, heart, spleen, liver, gallbladder, gastrointestinal (GI) tract and urinary bladder]. The remaining ^99mTc activity in other tissues was grouped within a ‘remaining tissues’ category. For each organ or tissue of interest, the ^99mTc activity was decay-corrected to the administration time and normalised to the injected activity. The temporal variation of this normalised and decay-corrected activity was then fit by one of several analytical functions, which was then integrated to yield the cumulated activity for that organ normalised to the injected activity.

healthy volunteers [1] = experiment: clinical; design: species or system human; conditions: in vivo
Protocol: as §1, §2, §3, §4

healthy volunteers [2] = system: healthy volunteers; design: species or system human; conditions: in vivo
Protocol: The mean absorbed doses per unit injected activity to 24 target organs were evaluated from this matrix of normalised cumulated activity values, using the MIRD schema, for a 70-kg adult human. The cumulated activity in the urinary bladder contents and voided urine was calculated using a dynamic urinary bladder model for a 3.5-h voiding interval. Cumulative activities in the GI tract were calculated using a dynamic model that assumed that activity enters the GI tract solely through hepatobiliary drainage. […] At later times, it was possible to identify the ^99mTc associated with the GI tract as predominantly that in the luminal contents. The overall time course of ^99mTc activity in a ROI set over the GI tract was typically that of an initial rapid decrease which then slowed to approach the amount present in the luminal contents. This observation was considered to be due to an initial rapid uptake and subsequent tissue clearance of ^99mTc from the GI tract walls combined with the slow introduction of ^99mTc into the GI contents via hepatobiliary transport. The activity in the luminal contents was isolated by first modelling the GI tract wall tissue clearance by the renormalised time course of activity measured in a ROI set over a region of soft tissue (the quadriceps femoris in one leg). […] The ED per unit injected activity was subsequently calculated from the ensemble of organ-absorbed dose values.
The effective dose (ED) was calculated from the ensemble of organ-absorbed dose values at 7.8 ± 0.8 μSv/MBq.

healthy volunteers [3] = experiment: clinical; design: species or system human; conditions: in vivo; remark: listed apart in the source
Protocol: as §3
Concentrations of maraciclatide in plasma were assayed using the LC-MS method (LOQ was 0.5 ng/ml). The mean apparent terminal elimination half-life was approximately 1 h. Overall, systemic clearance was approximately 6.7 ml/min/kg, whilst the mean apparent volume of distribution was approximately 520 ml/kg. The majority of ^99mTc activity was excreted through the urinary pathway and GI tract, 55% and 16%, respectively.

αvβ5 integrins = conditions: background statement, no reference printed; cited from earlier work
Description: As such, it holds promise as a novel diagnostic imaging agent for a range of pathological conditions. […] Methods A phase 1, randomised, placebo-controlled study assessed the safety, biodistribution and radiation dosimetry of ^99mTc-maraciclatide in healt ...

integrin receptor αvβ3 = conditions: background statement, no reference printed; listed as 99mTc-Maraciclatide; cited from earlier work
healthy volunteers [4] = experiment: Phase 1 safety assessment (adverse events, vital signs, ECG, laboratory parameters)
Protocol: In 2003, a phase 1, placebo-controlled, observer-blinded, randomised, single ascending-dose study was performed. The study aimed to assess the safety of three intravenous levels of maraciclatide and the biodistribution and radiation dosimetry of ^99mTc-maraciclatide in healthy volunteers, assessing the potential of ^99mTc-maraciclatide as a radiopharmaceutical for diagnostic imaging.
Safety data on vital signs (heart rate, blood pressure, temperature, and oxygen saturation), electrocardiograms (ECG), laboratory parameters and physical examinations (general appearance, lung, abdominal, cardiovascular, and neurological exam by a qualified clinician) were measured prior to administration, and at multiple time points up to 7 days following administration. Based on clinical assessment, new abnormal or worsening clinical findings were defined as a change from the participant’s normal baseline to abnormal. All abnormal changes were recorded as adverse events (AEs).
Safety assessments were performed by an observer blinded to the administration of the placebo and ^99mTc-maraciclatide. A thorough review of safety data was performed before the decision was made to escalate to the higher dose in participants.

C/C(=N\O)C(C)(C)NCCC(CCNC(=O)CCCC(=O)NCCCC[C@@H]1NC(=O)CSC[C@@H](C(=O)NCCOCCOCCOCCNC(=O)COCC(N)=O)NC(=O)[C@H](Cc2ccccc2)NC(=O)[C@@H]2CSSC[C@H](NC1=O)C(=O)N[C@@H](CCCNC(=N)N)C(=O)NCC(=O)N[C@@H](CC(=O)O)C(=O)N2)CCNC(C)(C)/C(C)=N/O (some centres unmarked) [^99mTc-maraciclatide, metal not drawn] ({CH2CO}-K([Glutaryl-X1])CRGDCFC-X2; disulfide 2-6; thioether N-8; N-terminus and C-terminus assumed)
dose excreted (clinical; 99mTc activity excreted through the GI tract): 16% | dose excreted (clinical; 99mTc activity excreted through the urinary pathway): 55% | normalised cumulated activity, combined walls of the small intestine and upper and lower large intestine (healthy volunteers [1]): 0.9 ± 0.2 MBq*h/MBq | normalised cumulated activity, contents of the upper large intestine (healthy volunteers [1]): 0.3 ± 0.1 MBq*h/MBq | normalised cumulated activity, liver (healthy volunteers [1]): 0.8 ± 0.2 MBq*h/MBq | normalised cumulated activity, lung (healthy volunteers [1]): 0.4 ± 0.1 MBq*h/MBq | uptake in the red bone marrow (healthy volunteers [1]): too low to be quantified | mean effective dose (ED) per unit injected activity (healthy volunteers [2]): 7.8 μSv/MBq | Absorbed dose per unit administered activity, Adrenal glands (healthy volunteers [2]; iv): 4.7 μGy/MBq | Absorbed dose per unit administered activity, Bone surfaces (healthy volunteers [2]; iv): 4.5 μGy/MBq | Absorbed dose per unit administered activity, Brain (healthy volunteers [2]; iv): 1.3 μGy/MBq | Absorbed dose per unit administered activity, Breasts (healthy volunteers [2]; iv): 1.8 μGy/MBq | Absorbed dose per unit administered activity, Gallbladder wall (healthy volunteers [2]; iv): 8.7 μGy/MBq | Absorbed dose per unit administered activity, Heart wall (healthy volunteers [2]; iv): 6.1 μGy/MBq | Absorbed dose per unit administered activity, Kidneys (healthy volunteers [2]; iv): 16.5 μGy/MBq | Absorbed dose per unit administered activity, Liver (healthy volunteers [2]; iv): 11.1 μGy/MBq | Absorbed dose per unit administered activity, Lower large intestine wall (healthy volunteers [2]; iv): 11.7 μGy/MBq | Absorbed dose per unit administered activity, Lungs (healthy volunteers [2]; iv): 7.3 μGy/MBq | Absorbed dose per unit administered activity, Muscle (healthy volunteers [2]; iv): 2.8 μGy/MBq | Absorbed dose per unit administered activity, Ovaries (healthy volunteers [2]; iv): 6.3 μGy/MBq | Absorbed dose per unit administered activity, Pancreas (healthy volunteers [2]; iv): 5.0 μGy/MBq | Absorbed dose per unit administered activity, Red marrow (healthy volunteers [2]; iv): 3.0 μGy/MBq | Absorbed dose per unit administered activity, Skin (healthy volunteers [2]; iv): 1.5 μGy/MBq | Absorbed dose per unit administered activity, Small intestine wall (healthy volunteers [2]; iv): 8.9 μGy/MBq | Absorbed dose per unit administered activity, Spleen (healthy volunteers [2]; iv): 16.1 μGy/MBq | Absorbed dose per unit administered activity, Stomach (healthy volunteers [2]; iv): 3.8 μGy/MBq | Absorbed dose per unit administered activity, Testes (healthy volunteers [2]; iv): 2.8 μGy/MBq | Absorbed dose per unit administered activity, Thymus gland (healthy volunteers [2]; iv): 2.5 μGy/MBq | Absorbed dose per unit administered activity, Thyroid gland (healthy volunteers [2]; iv): 4.9 μGy/MBq | Absorbed dose per unit administered activity, Upper large intestine wall (healthy volunteers [2]; iv): 14.7 μGy/MBq | Absorbed dose per unit administered activity, Urinary bladder wall (healthy volunteers [2]; iv): 36.2 μGy/MBq | Absorbed dose per unit administered activity, Uterus (healthy volunteers [2]; iv): 7.5 μGy/MBq | systemic urinary clearance (healthy volunteers [3]): approximately 6.7 ml/min/kg | affinity to αvβ5 (αvβ5 integrins): high affinity | affinity to αvβ3 (integrin receptor αvβ3): high affinity | number of non-serious AEs (healthy volunteers [4]; 24 participants receiving protocol-stipulated dose): 31 | deaths (healthy volunteers [4]; all dose groups, single i.v.): no deaths | intensity of related AEs (healthy volunteers [4]; in vivo): mild intensity | laboratory, ECG and vital signs parameters (healthy volunteers [4]; in vivo): no clinically important safety trends | participants experiencing non-serious AEs (number) (healthy volunteers [4]; in vivo): 17 | participants experiencing non-serious AEs (percent) (healthy volunteers [4]; in vivo): 71% | participants with AEs attributed to the agent (healthy volunteers [4]; in vivo): 6 | participants with AEs that required medical treatment (number) (healthy volunteers [4]; in vivo): 3 | participants with AEs that required medical treatment (percent) (healthy volunteers [4]; in vivo): 13% | participants with reduction in red blood cell count (number) (healthy volunteers [4]; in vivo): 4 | participants with reduction in red blood cell count (percent) (healthy volunteers [4]; in vivo): 17% | time to resolution of related AEs (healthy volunteers [4]; in vivo): ≤ 25 h
